Laboratory results published in US20230295336A1 (INHIBRX, published 2023).

T1: B7H3 (CD276) (human, UniProt Q5ZPR3 29-534)
T1 construct: whole, on cells
T1 sequence (looked up): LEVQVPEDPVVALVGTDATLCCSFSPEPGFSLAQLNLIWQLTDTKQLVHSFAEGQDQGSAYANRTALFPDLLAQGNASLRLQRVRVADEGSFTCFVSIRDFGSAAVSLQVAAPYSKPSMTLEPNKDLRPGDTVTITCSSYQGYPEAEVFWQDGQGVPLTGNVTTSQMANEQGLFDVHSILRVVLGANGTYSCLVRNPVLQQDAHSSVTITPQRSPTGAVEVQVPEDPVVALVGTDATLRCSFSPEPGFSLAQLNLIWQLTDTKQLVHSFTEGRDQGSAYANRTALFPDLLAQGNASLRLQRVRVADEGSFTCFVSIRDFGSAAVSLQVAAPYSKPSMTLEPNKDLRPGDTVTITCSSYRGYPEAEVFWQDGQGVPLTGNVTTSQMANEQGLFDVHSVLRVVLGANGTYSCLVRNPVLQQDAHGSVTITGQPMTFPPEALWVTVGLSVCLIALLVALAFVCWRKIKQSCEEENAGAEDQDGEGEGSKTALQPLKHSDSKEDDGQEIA

B1: cx6081 (bispecific antibody)
chain 1: EVQLVESGGGEVQPGGSLRLSCAASGFSFSSNVMMWVRQAPGKGLEWVSTIYSSGTGTFYAESVKGRFTISRDNAKNTLYLQMSSLRPEDTAVYYCATSGPVRGWGPRSQGTLVTVKPPGGGGDKTHTCPPCPAPPVAGPSVFLFPPKPKDTLMISRTPEVTCVVVDVKHEDPEVKFNWYVDGVEVHNAKTKPREEEYNSTYRVVSVLTVLHQDWLNGKEYKCKVSNKALPAPIEKTISKAKGQPREPQVYTLPPSREEMTKNQVSLTCDVSGFYPSDIAVEWESDGQPENNYKTTPPVLDSDGSFFLYSKLTVDKSRWEQGDVFSCSVMHEALHNHYTQKSLSLSPGKGGGGSGGGGSGGGGSEVQLVESGGGLVQPGGSLRLSCAASGFTFNTYAMNWVRQAPGKCLEWVARIRSKYNNYATYYADSVKGRFTISRDDAKNTLYLQMSSLRAEDTAVYYCVRHGNFGNSYVSWFAYWGQGTLVTVKP
chain 2: EVQLVESGGGEVQPGGSLRLSCAASGFSFSSNVMMWVRQAPGKGLEWVSTIYSSGTGTFYAESVKGRFTISRDNAKNTLYLQMSSLRPEDTAVYYCATSGPVRGWGPRSQGTLVTVKPPGGGGDKTHTCPPCPAPPVAGPSVFLFPPKPKDTLMISRTPEVTCVVVDVKHEDPEVKFNWYVDGVEVHNAKTKPREEQYNSTYRVVSVLTVLHQDWLNGKEYKCKVSNKALPAPIEKTISKAKGQPREPQVYTLPPSREQMTKNQVKLTCLVKGFYPSDIAVEWESNGQPENNYKTTPPVLDSDGSFFLYSKLTVDKSRWQQGNVFSCSVMHEALHNHYTQKSLSLSPGKGGGGSGGGGSGGGGSQAVVTQEPSLTVSPGGTVTLTCGSSTGAVTTSNYANWVQQKPGQAFRGLIGGTNKRAPGVPARFSGSLLGGKAALTISGAQPEDEADYYCALWYSNHWVFGCGTKLEIK
notes: Heterodimer of chain 1 and chain 2; anti-CD3 Fv disulfide-stabilized (VH G44C / VL G100C); two identical B7H3 sdAbs, both N-terminal to the Fc; also called cs6081; B7H3-targeting constrained CD3 engaging construct
B2: cx5067 (bispecific antibody)
chain 1: EVQLVESGGGLVQPGGSLRLSCAASGFTFSSFGMHWVRQAPGKGLEWVAYISSDSSAIYYADTVKGRFTISRDNAKNSLYLQMNSLRDEDTAVYYCGRGRENIYYGSRLDYWGQGTTVTVSSASTKGPSVFPLAPSSKSTSGGTAALGCLVKDYFPEPVTVSWNSGALTSGVHTFPAVLQSSGLYSLSSVVTVPSSSLGTQTYICNVNHKPSNTKVDKKVEPKSCDKTHTCPPCPAPPVAGPSVFLFPPKPKDTLMISRTPEVTCVVVDVKHEDPEVKFNWYVDGVEVHNAKTKPREEEYNSTYRVVSVLTVLHQDWLNGKEYKCKVSNKALPAPIEKTISKAKGQPREPQVYTLPPSREEMTKNQVSLTCDVSGFYPSDIAVEWESDGQPENNYKTTPPVLDSDGSFFLYSKLTVDKSRWEQGDVFSCSVMHEALHNHYTQKSLSLSPGKGGGGSGGGGSGGGGSEVQLVESGGGLVQPGGSLRLSCAASGFTFSTYAMNWVRQAPGKGLEWVGRIRSKYNNYATYYADSVKGRFTISRDDSKNTLYLQMNSLRAEDTAVYYCVRHGNFGDSYVSWFAYWGQGTLVTVSS
chain 2: EVQLVESGGGLVQPGGSLRLSCAASGFTFSSFGMHWVRQAPGKGLEWVAYISSDSSAIYYADTVKGRFTISRDNAKNSLYLQMNSLRDEDTAVYYCGRGRENIYYGSRLDYWGQGTTVTVSSASTKGPSVFPLAPSSKSTSGGTAALGCLVKDYFPEPVTVSWNSGALTSGVHTFPAVLQSSGLYSLSSVVTVPSSSLGTQTYICNVNHKPSNTKVDKKVEPKSCDKTHTCPPCPAPPVAGPSVFLFPPKPKDTLMISRTPEVTCVVVDVKHEDPEVKFNWYVDGVEVHNAKTKPREEQYNSTYRVVSVLTVLHQDWLNGKEYKCKVSNKALPAPIEKTISKAKGQPREPQVYTLPPSREQMTKNQVKLTCLVKGFYPSDIAVEWESNGQPENNYKTTPPVLDSDGSFFLYSKLTVDKSRWQQGNVFSCSVMHEALHNHYTQKSLSLSPGKGGGGSGGGGSGGGGSQAVVTQEPSLTVSPGGTVTLTCGSSTGAVTTSNYANWVQQKPGKSPRGLIGGTNKRAPGVPARFSGSLLGGKAALTISGAQPEDEADYYCALWYSNHWVFGGGTKLTVL
light: DIQLTQSPSFLSASVGDRVTITCKASQNVDTNVAWYQQKPGKAPKALIYSASYRYSGVPSRFSGSGSGTDFTLTISSLQPEDFATYYCQQYNNYPFTFGQGTKLEIKRTVAAPSVFIFPPSDEQLKSGTASVVCLLNNFYPREAKVQWKVDNALQSGNSQESVTEQDSKDSTYSLSSTLTLSKADYEKHKVYACEVTHQGLSSPVTKSFNRGEC
notes: Three polypeptides; two identical B7H3 Fab domains; anti-CD3 Fv not disulfide-stabilized; also called MAB-FV; B7H3-targeted constrained CD3 engaging construct (Fab format)

Legend:
[1] = molecular target: T2, CD3 on the surface of primary T cells (human, UniProt P07766 23-207); assay: flow cytometry on isolated primary human T cells
T2 construct: whole, on cells; CD3 is a multimeric complex (ε, γ, δ, ζ chains) with the TCR; In the reporter assays CD3 stood on Jurkat cells; also called CD3ε
T2 sequence (P07766 23-207): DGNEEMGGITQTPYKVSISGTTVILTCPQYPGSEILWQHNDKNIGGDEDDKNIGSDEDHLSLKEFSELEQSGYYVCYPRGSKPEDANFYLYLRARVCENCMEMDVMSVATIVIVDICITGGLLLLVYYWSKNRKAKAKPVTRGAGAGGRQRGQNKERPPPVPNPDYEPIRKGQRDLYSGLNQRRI
Procedure: (§1) Binding of exemplary multispecific constructs containing an antigen-binding domain directed against B7H3 were assessed for binding to B7H3 positive A375 tumor cells or primary T-cells. The constructs were generated containing antigen-binding domain(s) that were either sdAbs or a FABs, and that were positioned either only N-terminal to the Fc or both N-terminal to the Fc and C-terminal to the anti-CD3 binding domain (see FIGS. 3A and 3C and Table E1.1). Among the various formats of constructs tested included: sdAb-Fc-dsFV-sdAb (cx3072, cx5952) sdAb-Fc-FV (cx6079), sdAb-Fc-dsFV (cs6080, cx6081), MAB-FV (cx5067) and MAB-dsFV (cx6083, cx6084), where the FV represents the anti-CD3 binding domain composed of VH and VL domain pairs and “ds” notes disulfide stabilized via an engineered interdomain disulfide bond.
(§2) Binding was assessed as described above via flow cytometry using a fluorophore-conjugated anti-human Fc secondary antibody. cx3072 bound to A375 cells with high affinity (FIG. 6A) but not to isolated T-cells (FIG. 6B). […] The B7H3-targeting sdAb containing constructs (cx5952, cx6079, cx6080, and cx6081) bound to B7H3 positive cells with similar affinities (depicted in FIG. 6E), with cx5952 displaying higher maximal binding. cx6079, cx6080 and cx6081 contain two identical B7H3-targeting sdAbs, whereas cx5952, and cx3072 contain two distinct B7H3-targeting sdAb that bind different epitopes. The MAB-FV, cx5067, contains two identical B7H3-targeting FAB domains.

B7H3 (CD276) = molecular target: T1, B7H3 (CD276); assay: flow cytometry on A375 cells, anti-human Fc secondary
Procedure: as §1, §2

Binder	binding result [1]	binding result (B7H3 (CD276))
B1	no binding	binds
B2	no binding	binds
